Assay results: publication doi:10.1101/2020.09.01.276469 (bioRxiv, 2020)

T1: TPX2 amino acids 1-178 (Xenopus laevis, UniProt Q6NUF4 1-178)
T1 sequence (looked up): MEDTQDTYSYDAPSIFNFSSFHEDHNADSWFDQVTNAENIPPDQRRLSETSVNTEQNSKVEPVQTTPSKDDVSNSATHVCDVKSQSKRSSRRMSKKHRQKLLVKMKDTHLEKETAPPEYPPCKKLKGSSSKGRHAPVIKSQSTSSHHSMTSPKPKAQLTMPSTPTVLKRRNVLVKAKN

T2: TPX2 amino acids 1-260 (Xenopus laevis, UniProt Q6NUF4 1-260)
T2 sequence (looked up): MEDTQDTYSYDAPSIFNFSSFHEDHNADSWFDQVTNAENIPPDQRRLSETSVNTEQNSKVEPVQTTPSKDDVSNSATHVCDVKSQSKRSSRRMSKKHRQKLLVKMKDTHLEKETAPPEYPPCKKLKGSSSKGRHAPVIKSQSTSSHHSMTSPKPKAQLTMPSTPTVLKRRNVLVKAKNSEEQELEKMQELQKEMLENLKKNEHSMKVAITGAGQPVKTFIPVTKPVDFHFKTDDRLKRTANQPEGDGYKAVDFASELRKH

B1: Targeting Protein for XKlp2 (TPX2), full length, GFP-tagged (natural protein, Xenopus laevis, UniProt Q6NUF4 1-716, looked up)
chain: MEDTQDTYSYDAPSIFNFSSFHEDHNADSWFDQVTNAENIPPDQRRLSETSVNTEQNSKVEPVQTTPSKDDVSNSATHVCDVKSQSKRSSRRMSKKHRQKLLVKMKDTHLEKETAPPEYPPCKKLKGSSSKGRHAPVIKSQSTSSHHSMTSPKPKAQLTMPSTPTVLKRRNVLVKAKNSEEQELEKMQELQKEMLENLKKNEHSMKVAITGAGQPVKTFIPVTKPVDFHFKTDDRLKRTANQPEGDGYKAVDFASELRKHPPSPVQVTKGGHTVPKPFNLSKGKRKHEEASDYVSTAEQVIAFYKRTPARYHLRSRQREMEGPSPVKMIKTKLTNPKTPLLQTKGRHRPVTCKSAAELEAEELEMINQYKFKAQELDTRILEGGPVLLKKPLVKEPTKAIGFDLEIEKRIQQREKKEEIEEETFTFHSRPCPSKMLTDVVGVPLKKLLPVTVPQSPAFALKNRVRIPAQEEKQEEMVPVIKATRMPHYGVPFKPKLVEQRQVDVCPFSFCDRDKERQLQKEKRLDELRKDEVPKFKAQPLPQFDNIRLPEKKVKMPTQQEPFDLEIEKRGASKLQRWQQQIQEELKQQKEMVVFKARPNTVVHQEPFVPKKENRSLTESLSGSIVQEGFELATAKRAKERQEFDKCLAETEAQKSLLEEEIRKRREEEEKEEISQLRQELVHKAKPIRKYRAVEVKASDVPLTVPRSPNFSDRFKC
B2: importin-α/β heterodimer (GST-importin-α bound to importin-β) (complex)
chain 1: not shown
chain 2: MELVTILEKTVSPDRNELEAAQKFLEQAAVENLPTFVVELSKVLANPANSQVARVAAGLQIKNPLTSRDPDVKAQYQQRWLAIDASARGEIKTYVLRTLGTESYRPSSASQCVAGIACAEITVNQWPQLIPQLVANVTDPNSTERMKESTLEAIGYICQDIDPEQLQHKSNEILTAIIQGMRKEEPSNNVRLAATNALLNSLEFTKANFDKESERHYIMQVVCEATQCPDTRVRVAALQNLVKIMSLYYQYMETYMGPALFAITVEAMKNEIDEVALQGIEFWSNVCDEEMDLAIEASEAAEQGRPPEHTSKFYAKGALQYLVPILTQTLTKQDENDDDDDWNPCKAAGVCLMLLATCCEDDIVPHVLPFIKEHIKNPDWRYRDAAVMAFGCILEGPESCQLKPLVIQAMPTLIELMKDPSVVVRDTTAWTVGRICELLPEAAINDVYLAPLLQCLIEGLGAEPRVASNVCWAFSSLAEAAYEAADVADDQEEPSSYCLSSSFEVIVQKLLETTDRPDGHQNNLRSAAYEALMEIVKNSAKDCYPAVQKTTLVIMERLQQVLQVESHIQSTSDRIQFNDLQSLLCATLQNVLRKVQHQDALQISDVVMASLLRMFQSTAGSGGVQEDALMAVSTLVEVLGAEFLKYMEAFKPFLTIGLKNYAEYQVCLAAVGLVGDLCRALQSNILPFCDEMMQFLLENLGNENVHRSVKPQILSVFGDVALAIGGEFKKYLDVVLNTLQQASQAQVDKSDYDMVDYLNELREGCIEAYTGIIQGLKGDQENVHPDVMLVQPRVEFILSFIDHIAGDEDHTDSVVACGAGLIGDLCTAFGKDVLKLVEARPMIHELLTEGRRSKTNKTKTLATWATKELRKLKNQA
B3: importin-β (natural protein, Xenopus laevis, UniProt P52297 1-876, looked up)
chain: B2 chain 2
B4: TPX2 N-terminus (a.a. 1-480) (domain or fragment, Xenopus laevis, UniProt Q6NUF4 1-480, looked up)
chain: MEDTQDTYSYDAPSIFNFSSFHEDHNADSWFDQVTNAENIPPDQRRLSETSVNTEQNSKVEPVQTTPSKDDVSNSATHVCDVKSQSKRSSRRMSKKHRQKLLVKMKDTHLEKETAPPEYPPCKKLKGSSSKGRHAPVIKSQSTSSHHSMTSPKPKAQLTMPSTPTVLKRRNVLVKAKNSEEQELEKMQELQKEMLENLKKNEHSMKVAITGAGQPVKTFIPVTKPVDFHFKTDDRLKRTANQPEGDGYKAVDFASELRKHPPSPVQVTKGGHTVPKPFNLSKGKRKHEEASDYVSTAEQVIAFYKRTPARYHLRSRQREMEGPSPVKMIKTKLTNPKTPLLQTKGRHRPVTCKSAAELEAEELEMINQYKFKAQELDTRILEGGPVLLKKPLVKEPTKAIGFDLEIEKRIQQREKKEEIEEETFTFHSRPCPSKMLTDVVGVPLKKLLPVTVPQSPAFALKNRVRIPAQEEKQEEMVPVI
B5: importin-αΔIBB (importin-α without the importin-β binding domain) (domain or fragment)
chain: not shown

How the values were obtained:
importin-β = target: B3; assay: BLI
[1] = target: B2; assay: BLI
[2] = target: B1; assay: SEC-MALS
[3] = target: GST-importin-α (full length) (Xenopus laevis); assay: SEC-MALS
TPX2 amino acids 1-178 = target: T1, TPX2 amino acids 1-178; assay: BLI
[4] = target: B1; assay: BLI
TPX2 amino acids 1-260 = target: T2, TPX2 amino acids 1-260; assay: BLI
SEC-MALS = target: the molecule itself; assay: SEC-MALS

Binder: B1
Kd (importin-β): 530 ± 75 nM
Kd [1]: 75 ± 15 nM

Binder: B2
stoichiometry N [2]: 1

Binder: B3
stoichiometry N [3]: 1

Binder: B4
Kd (importin-β): 512 ± 70 nM

Binder: B5
Kd (TPX2 amino acids 1-178): 15 ± 3 nM
Kd [4]: 61 ± 10 nM
Kd (TPX2 amino acids 1-260): 20 ± 4 nM
stoichiometry N (SEC-MALS): 2
stoichiometry N [2]: ≥ 1
